According to patent publication US9156883B2, “Binding molecules for human factor VIII and factor VIII-like proteins” (DYAX CORP., priority 1999, dated 2015):
Positions of bridges follow the written chain, without caps; N, C: chain ends. No end group written: not given here. *: point of attachment. NHNH2 = NN*

Key:
[1] = Peptide stability, Asp-Pro changed to Glu-Pro; assay type: physicochemical; settings: DP changed to EP versus GI-2; Asp-Pro hydrolysis particularly at low pH
Description: Binding polypeptides were synthesized with the amino terminal residue acetylated and the carboxyl terminal residue as a free acid. The two cysteine residues are oxidized and form a disulfide bond which creates a cyclic peptide structure. The residues contained within the cyclic structure are underlined. The peptide sequence is identical to the sequence GI-2 shown in Table 4 except that the aspartic acid residue at position 19 has been changed to glutamic acid (bold).

[2] = biological target: T1, factor VIII-like polypeptide (REFACTO®) (Homo sapiens, UniProt P00451); assay: Affinity chromatography capture and elution of REFACTO® on immobilized peptide columns; assay type: binding; settings: bound material eluted in the presence of ethylene glycol
T1 construct: amino acids 1-743 and 1638 through 2332 of human factor VIII; purchased Genetics Institute, Inc. (Cambridge, Mass.)
T1 sequence (P00451 20-762): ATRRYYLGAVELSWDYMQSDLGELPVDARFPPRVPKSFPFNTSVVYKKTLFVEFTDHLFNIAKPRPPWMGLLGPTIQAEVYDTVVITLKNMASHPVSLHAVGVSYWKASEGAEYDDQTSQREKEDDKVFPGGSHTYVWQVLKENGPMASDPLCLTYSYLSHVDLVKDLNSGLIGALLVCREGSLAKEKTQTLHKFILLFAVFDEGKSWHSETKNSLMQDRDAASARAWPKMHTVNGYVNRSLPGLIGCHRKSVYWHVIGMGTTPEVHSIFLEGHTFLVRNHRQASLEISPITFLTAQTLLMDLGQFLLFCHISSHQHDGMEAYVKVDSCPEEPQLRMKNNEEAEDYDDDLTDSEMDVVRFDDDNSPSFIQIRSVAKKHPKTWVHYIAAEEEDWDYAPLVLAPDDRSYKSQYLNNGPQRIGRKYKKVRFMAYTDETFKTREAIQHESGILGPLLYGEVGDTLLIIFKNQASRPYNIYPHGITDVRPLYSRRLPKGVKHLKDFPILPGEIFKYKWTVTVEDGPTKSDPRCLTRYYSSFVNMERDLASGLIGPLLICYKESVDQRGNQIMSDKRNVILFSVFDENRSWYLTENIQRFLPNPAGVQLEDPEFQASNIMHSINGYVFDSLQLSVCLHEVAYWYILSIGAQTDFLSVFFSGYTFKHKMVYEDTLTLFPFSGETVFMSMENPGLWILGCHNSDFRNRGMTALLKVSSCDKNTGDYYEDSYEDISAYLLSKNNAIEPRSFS
T1 sequence (P00451 1657-2351): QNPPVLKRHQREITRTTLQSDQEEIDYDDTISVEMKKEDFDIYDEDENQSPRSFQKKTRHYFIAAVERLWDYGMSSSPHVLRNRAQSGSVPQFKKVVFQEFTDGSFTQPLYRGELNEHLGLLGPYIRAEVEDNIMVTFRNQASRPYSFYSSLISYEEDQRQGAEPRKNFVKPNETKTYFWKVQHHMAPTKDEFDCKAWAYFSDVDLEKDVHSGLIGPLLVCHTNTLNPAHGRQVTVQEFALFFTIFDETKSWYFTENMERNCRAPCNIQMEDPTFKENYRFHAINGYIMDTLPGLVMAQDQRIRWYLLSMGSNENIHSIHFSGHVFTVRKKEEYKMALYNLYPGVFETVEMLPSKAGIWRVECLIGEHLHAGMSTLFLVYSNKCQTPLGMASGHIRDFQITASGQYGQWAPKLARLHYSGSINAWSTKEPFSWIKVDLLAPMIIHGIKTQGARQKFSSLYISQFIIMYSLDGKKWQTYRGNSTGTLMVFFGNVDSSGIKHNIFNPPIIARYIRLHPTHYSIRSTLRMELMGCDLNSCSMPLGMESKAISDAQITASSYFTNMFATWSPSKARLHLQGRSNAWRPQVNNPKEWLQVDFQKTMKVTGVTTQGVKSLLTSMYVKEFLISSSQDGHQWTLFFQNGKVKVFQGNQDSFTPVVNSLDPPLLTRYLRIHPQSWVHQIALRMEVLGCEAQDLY
Protocol: The candidate ligands were immobilized onto a formyl-substituted ethylene glycol-methacrylate chromatographic resin (Toyopearl Formyl 650-M, pore size of ˜1000 Å; TosoHaas, Montgomeryville, Pa.). The hydrazide-containing peptides were immobilized by facilitating hydrazone bond formation, the GI-1 and -2 peptides were immobilized via reductive amination using NaCNBH3. The amount of polypeptide immobilized on the solid support was determined by quantifying the amount of free polypeptide remaining in solution. The amount of ligand immobilized per ml of resin was in the range of 0.7-1.5 μmol for the hydrazine-immobilized peptides.
The nine peptides were evaluated by affinity chromatography for their ability to capture the REFACTO® described in Example I, under specific binding and release conditions.
The factor VIII-like polypeptide (REFACTO®) was diluted in SP Buffer to a concentration of 150 μg/ml. The affinity resins (˜350 μl) were each packed into glass columns, and approximately 150 μg of the factor VIII target was applied to the prepared affinity columns at a flow rate of 200 μl/minute (linear velocity of 170 cm/hour). […] Fractions were collected and the mass and activity of recovered factor VIII-like polypeptide was determined by reversed-phase HPLC and by enzymatic assay.
For the mass determination, a standard curve with REFACTO® (0-200 μg) was generated and the amount present in each fraction was calculated according to techniques well known in the art. Reversed-phase HPLC in the presence of 20 mM EDTA was used to disrupt the REFACTO® molecule into its component subunits, which were eluted with a gradient of acetonitrile/0.01% TFA. The activity assay was a Factor IX-, X-based assay. The results for each affinity resin are set forth below (Table 6).

Substance	peptide stability (in words) [1]	capture of the factor VIII target by the affinity resin (in words) [2]
Acetyl-AEGTGDHRCGSWLHPCLAEPGEGGGGSK (Ac-AEGTGDHRCGSWLHPCLAEPGEGGGGSK; disulfide 9-16 (inferred)) [TN8.2, cyclic disulfide peptide, GI-2 with Asp at position 19 changed to Glu]	improved peptide stability	
AEGTGDHPCGSWLRPCLHDPGPEGGGS-NHNH2 (disulfide 9-16 (inferred)) [CS-453]		captured virtually all of the factor VIII target applied
AEGTGDFCWVFPFQHCADPGPEGGGS-NHNH2 (disulfide 8-16 (inferred)) [CS-459]		captured virtually all of the factor VIII target applied
AEGTGDFHCIGVWFCLHDPGPEGGGS-NHNH2 (disulfide 9-15 (inferred)) [CS-455]		inability of the CS-455 and GI-1 resins to capture the target
Ac-AEGTGDRLCSWVSPCSADPEGGGSK (cysteine pairing not given here) [GI-1]		inability of the CS-455 and GI-1 resins to capture the target
